Experiment: yeast display, Sf9 membrane polyspecificity reagent, FACS + sequencing; frameworks hold sequencing errors
How it was run: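 Nanobodies from a synthetic yeast display library (Saccharomyces cerevisiae BJ5465), induced 36–48 hours with galactose, were stained 1 hour at 4 °C with 10% biotinylated, detergent-solubilized Sf9 membrane reagent, enriched on streptavidin microbeads, then FACS-sorted. Anti-HA (expression) and streptavidin (reagent binding) fluorescence set low and high (top ~1%) gates. Polyreactivity labels come from the gate of origin. Genes were colony-PCR amplified, MiSeq 2 × 250 sequenced and filtered by CDR length.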

Sequence: QVQLVESVRGVVQAGGSLRLSCASSVFTFRWYAMGWFRQAPGKESELVADITRHGGSTYYADSVKGRFTISRDNAKNTVYLQMNSLKPEDTAVYYCAADLSWYDWEDDYWGQGTQVTVSS
- polyreactivity (PSR sort gate): low polyreactivity

Sequence: QVQLVESVRRLVQAGGSLRLSCAASGSIYYPYAMGWYRQAPGKEMELVAAITGHGGSTYYADSVKGRFTISRDNAKNTVYLQMNSLNPEDTAVYYCATGGYQPVLHRGYYRFNYWGQGTQVTVSS
- polyreactivity (PSR sort gate): low polyreactivity

Sequence: QVQLVESVVGLDQAGGSHRLSCAASGSIFATYAMGWYRHAPGKERELVAAITTRGGSTYYADSVKGRFTISRDNAKNTVYLLMYSLKPEDTAVYFCNALRWWSYGLNYCGQGTQVTVSS
- polyreactivity (PSR sort gate): high polyreactivity

Sequence: QVQLVESVVGLDQAGGSLSLSCAASAIILYYYSMGWYRQAPGKEREVVAAISSGGNTYYADSVKGRFTISRDNAKNTVYFQMNSLKPEDTAVYYCAAGNVIGGEYDYWGLGTQVTVSS
- polyreactivity (PSR sort gate): low polyreactivity

Sequence: QVQLVESVVGLVQAGCSLRLSCDASGFIFYYYTMGWYRQATGKERELVAAISRSGGRTYYADSVKGLFTISRDYAKNTVYLQMNSMKPDDTAVYYCAADTPYQTPPQQYVEYDYWGQCTQVTVSS
- polyreactivity (PSR sort gate): high polyreactivity

Sequence: QVQLVESVVGLVQAGGSLRLSCAASGRTFRVNAMGWYRQAPGKERELVAAITWSGGTTYYADSVKGRFTISRDNAKNTVYLQMNSLKPEDTAVYYCAADRFWYGSWYDYWGHGTQVTVSS
- polyreactivity (PSR sort gate): high polyreactivity

Sequence: QVQLVESVVGLVQAGGSLRVSCAAYGRTFWYYPMGWYRQAPGKERELVAGITFTGGRTYYADSVKGRFTISRDNAKHTVYLQMNSLKPEDTAVYYCAAAGLVVGRKDRDGYWGLGTQVTVSS
- polyreactivity (PSR sort gate): low polyreactivity

Sequence: QVQLVESWAGLVQAGGSLRLSCAASGSTFSGYTMGWYRQAPGKEREFVAAISSRGGSTYYADSVKGRFTISRDNAKNTVYLHMNSLKPEDTAVYYCAAKVWARVDGRQFRMEYWGQGTQVSVSS
- polyreactivity (PSR sort gate): high polyreactivity

Sequence: QVQLVESWGGLVQAAGSLRLSCAASGFIFRYNTMGSSRQAPAKERESVAAFSVSGARTYYADSVKGRFTISRDNAKNTVYLLMNSLKTEDTAVYYCNRRYPFYSRYNNDYWGQGTQVTVSS
- polyreactivity (PSR sort gate): high polyreactivity

Sequence: QVQLVESWGGLVQAGASLRLSSAASGSIFGSYAMGSYRQAPGKERQLVAAITGIGGSTYYADSVKGRFTITRDNAKNTVYLQLNSLKPEDTAVYYCATRVRYRAPVVRGNYWGQGTQVTVSS
- polyreactivity (PSR sort gate): high polyreactivity

Sequence: QVQLVESWGGLVQAGCSLRISCAASGSTLYSYAMGWNIQAPGKERELVAAINSGSNTYYADSVKGRFTISRDNAKNTVYLQMNSLKPEDTAVYYCAAKGIIYTGYDGARRAYGYWGQGTQVTVSS
- polyreactivity (PSR sort gate): high polyreactivity

Sequence: QVQLVESWGGLVQAGGRLRLSCAASGRTFPGYAMGWYRPAPRKERELVAGISYRGGSTYYADSVKGRFTISRDNAKYTDYLQMNSLNPEDTAVYYCARDYSRHKGDYWGQGTQVTVSS
- polyreactivity (PSR sort gate): low polyreactivity

Sequence: QVQLVESWGGLVQAGGSHRLSCDASGRIFTRNAMGWYRQAHGKERELVAAISYDCGSTYYADSVKVRFTISRDNAKNTVYLQMNSLKPEDTAVYYCATDLYLHGYEYWGQGTQVTVSS
- polyreactivity (PSR sort gate): high polyreactivity

Sequence: QVQLVESWGGLVQAGGSLRLSCAASGFIFDNNALGWYRQAPGKERELVADISRSGGSTYADSVKGRFTISRDNAKNTVYFQMNSLKAEDTAVYYCAKDFQGRRPPKEPSAFYYWGQGTQVTVSS
- polyreactivity (PSR sort gate): low polyreactivity

Sequence: QVQLVESWGGLVQAGGSLRLSCAASGFTFRYYAMGWYRQAPGKERELVAAITGSGTRTYYADSVKGRFTISRDNAKNTVYLQMNSLKPEDTAVYYCNAPRQPRWFDYWGQGTQVTVSS
- polyreactivity (PSR sort gate): high polyreactivity

Sequence: QVQLVESWGGLVQAGGSLRLSCAASGFTFTRNAMGWYRQAPGKERELVAAISKSGGRTYYADSVKGRFTISRDNAKYNVYLQMNSLKPEDTAVYYCAVVPRPFGLGSDYDYWGQGTQVTVSS
- polyreactivity (PSR sort gate): high polyreactivity

Sequence: QVQLVESWGGLVQAGGSLRLSCAASGIIFQNYDMGWYRQARGKERELVAAITGSGGSTYYADSVKGRFTISRDNAKNTVYLQMNSLKPEDTAVYYCNAVWEYYGKSDYWGQGTQVTVSS
- polyreactivity (PSR sort gate): low polyreactivity

Sequence: QVQLVESWGGLVQAGGSLRLSCAASGLTFNYYAMGWYRQAPGKERELVAAITSSGGSTYYADSVKGRFTISRDNAKNTVYLQMNSLKPEDTAVYYCNADVYAHRYIYGFDYWGQGTQVTVSS
- polyreactivity (PSR sort gate): high polyreactivity

Sequence: QVQLVESWGGLVQAGGSLRLSCAASGRIFHRYAMGWYRQAPGKEREFVAAITYSTGTTYYADSVKGRFTISRDNAKITVYLQMNSLKPEDPAVYYCAKDRRFWHKTWFAYGYDYWGQGTQVTVSS
- polyreactivity (PSR sort gate): low polyreactivity

Sequence: QVQLVESWGGLVQAGGSLRLSCAASGRIFRNYVMGWYRQAPGKERELVAAISRSGGSTYYADSVKGRFTISRDNAKNTVYLQMNSLKPEDTAVYYCNADYATRRVSLNYGYWGQGTQVTVSS
- polyreactivity (PSR sort gate): high polyreactivity

Sequence: QVQLVESWGGLVQAGGSLRLSCAASGRTFAYYAMRWYRQAPGKERELVAAISSGGRTNYADSVKGRFTISRDNAKNTVYLQMNSLKPEDTAVYYCARKASYQIYNGQYGGFGYGYWGQGTQVTVSS
- polyreactivity (PSR sort gate): high polyreactivity

Sequence: QVQLVESWGGLVQAGGSLRLSCAASGRTFIRYTMGWYRQAPGKERELVASIRYSGASTSYADSVKGRFTISRDNAKNTVYLQMNSLKPEDTAVYYCAADRYWWWYNSPYSGMDYWGQGTQVTVSS
- polyreactivity (PSR sort gate): high polyreactivity

Sequence: QVQLVESWGGLVQAGGSLRLSCAASGRTFYSNAMGWYRQAPGKERELVAAITSTDDSTYYADSVKGRFTISRDNAKNTVYLQMNSLKPEDTAVYYCNTDGLIAIRGLWWVEYDYWGQGTQVTVSS
- polyreactivity (PSR sort gate): low polyreactivity

Sequence: QVQLVESWGGLVQAGGSLRLSCAASGSTFILYAMGGYRQAPGNERELVAAITSRGVSTYYADSVKGRFTISRDNAKNTVYLQMNSLKPEDTAVYNWAADQYQASYYYWGQGTQVTVSS
- polyreactivity (PSR sort gate): low polyreactivity

Sequence: QVQLVESWGGLVQAGGSLRLSCAASGSTIIGYDMGWYRQAPGKVRELVAAISYSDGTYYADSVKGRFTISRDNAKNTFYLPMNSLKPEDTAVYYCAADSLYYRYDYWGQGTQVTVSW
- polyreactivity (PSR sort gate): low polyreactivity

Sequence: QVQLVESWGGLVQAGGSLRLSCAASGSTISDNAMGWYRQAPGKERELVATIDDDGSTYYADSVKGRFTISRDNAKKTVYLQMNSLKPEDTAVYYCAAEWYGGYPFGYWGQGTQVTVSS
- polyreactivity (PSR sort gate): low polyreactivity

Sequence: QVQLVESWGGLVQAGGSLRLSCAASGYTFSYYAMGWYRPAPWKERELVAAITSTGSTYYADSVKVRFTISRDNAKNTVYLQMNSLKPEDTAVYYCNVDDATVGPVDYWGQGTQVTVSS
- polyreactivity (PSR sort gate): low polyreactivity

Sequence: QVQLVESWGGLVQAGGSLRLSCAATGVTFKFYAMGWYRQAPGKERELVAAISWSGTSTYYADSVKGRFTISRDNAKNTVYLQMNSLKPEDTAVYYCAADKRLRGHGYDYWGQGTQVTVSS
- polyreactivity (PSR sort gate): high polyreactivity

Sequence: QVQLVESWGGLVQAGGSLRLSCDASGSIFVSNAMGWYRQAPGKERELVAAISRGGVNTNYADSVKGRFTISRDNAKNTVYLQMNSLKQEDTAVYYCAAKWSHVRDGPKYDYCGQGTQVTVSS
- polyreactivity (PSR sort gate): low polyreactivity

Sequence: QVQLVESWGGLVQAGGSLRLSCDDSGFTIRVYAMGWYRQAPGKERELVAAISVRGDSTYYADSVKGRFTISRDNAKNTVYLQMNSLKPEDTAVYYCNAVIAPYRRYDYWGQGTQVTVSS
- polyreactivity (PSR sort gate): high polyreactivity

Sequence: QVQLVESWGGLVQAGGSLRLSSAASGLTFWYYAMGCNRQAPGKESELVAAITSVGSSYYADSVKGRFTISRDNAKQTVYLQMNSLKPEDTAVYYCAAGVPPLYFRRGGDYWGQGTQVTVSS
- polyreactivity (PSR sort gate): high polyreactivity

Sequence: QVQLVESWGGLVQARGRLRLSFAASGSTYQNAMRCYRQAPGKEREFVAAISWSGGSTYYGDSVKGRFTISRDNAKNTVYLQMNSLKPEDTAVYYCAAYSYFSPWYDYWGQGTQVTVSS
- polyreactivity (PSR sort gate): high polyreactivity

Sequence: QVQLVESWGGVVQAGGSLRISCAASGFILARYAMGWYRQAPGKERELVAAIRRSGGGTYYADSVKGRFTISRDNAKYTVYLLMKSLKPEDTAVYYCNRDPTYLAYYINYDSWGQGTQVTVSS
- polyreactivity (PSR sort gate): high polyreactivity

Sequence: QVQLVESWRGLVQEGGSLRLSCAASGRTFYSYAMGWYIQAPGKERELVAAITRRGTSTYYADSVKGRFTISRDNAKNTVYLQMNSLKPEDTAVYYCAARLPGTFSYGYWGQGTQVTVSS
- polyreactivity (PSR sort gate): high polyreactivity

Sequence: QVQLVETAGGLVQAGGSLRLSCAASGRIFYGYTLGWYRPAPGKERELVAAISRGGSTYYADSVKGRFTISRDNAKNTVYLQMNSLKPEDPAVYYCAKTYRRRYYPYFHFRYYWGQGTQVTVSS
- polyreactivity (PSR sort gate): high polyreactivity

Sequence: QVQLVETAGGLVQAGGTLRLSCPASGFTIFDNAMGWSRHPPGQERELVAVITKRGGSTYYADSVKGRFTISRYNAKNTVYLQMNILKPEDTAVYYCAADSRFSNFGVTQVTSDYWGQGTQVTVSS
- polyreactivity (PSR sort gate): low polyreactivity

Sequence: QVQLVETGACLVQAGGSLRLSCAASGLTFFGYTMGRYRQAHGKEREFVADITWSGGSTYYADSVKGRFTISRDNAKNTVYLQMNSLKPEDTAVYYCAVAPPNWDPFVDDTYLMDYWGQGTQVTVSS
- polyreactivity (PSR sort gate): low polyreactivity

Sequence: QVQLVETGAGLVQAGGRLRLSCDSSGSTFYVYYMGWYRQSPGKERELVAAISSGAGSTYYADSVKGRFTISRDNAKNTVYLQMNSLTRKIPRSSTALLFTVNGGGSRSHDYWAQGTQVTVSS
- polyreactivity (PSR sort gate): low polyreactivity

Sequence: QVQLVETGGGLFQAGGTLLLSCAASGRIFIRNALVWYRQAPGKEWELVAAIRTRDASTYYADSVKGRFTISRDIAKNTVYLLMNSLKPVDTAVYYCNADTTWPSSSGPTTFGQGDYWGQGTQVTVSS
- polyreactivity (PSR sort gate): low polyreactivity

Sequence: QVQLVETGGGLVHAGGSLRLSCAASGSTISLYARGWYRQAPVKERELVASITWGGGSTYADSVKGRFTISRDNAKNTVYLQLNRLKPEDTAVYYCARKYRYRVLYDFAYDHWGQGTQVTVSS
- polyreactivity (PSR sort gate): low polyreactivity

Sequence: QVQLVETGGGLVQAAGSLRLSTAASGSTYWCNTMGWYRQAPGKERELVADIRTSGGGTYYADSVKGRFTISRDNAKNTVYLQMNRLKPEDTAVYYCNAVPNWEMGSWGLGTQVTVSS
- polyreactivity (PSR sort gate): low polyreactivity

Sequence: QVQLVETGGGLVQAGGILRLSCAASGLTIIYYAMGWYRQSPGKERELVAAISGSVGSTYYADSVQGRFTISRDNAKNTVYLQMNSLKPEDTAVYYCNADRWGFGNVRKYDYWGQGTQVTVSS
- polyreactivity (PSR sort gate): low polyreactivity

Sequence: QVQLVETGGGLVQAGGSHRLSCAASGFTFWYNAMGWYRPAPGKERELVAAIDWRGSSTYYADSVNGRFTISRDNAKNTVYLQMNSLKPEDTAVYYCAADFGDRYVYWAQGTQVTVSS
- polyreactivity (PSR sort gate): high polyreactivity
